Source: publication PMC546129

Tests used:
[1] = molecular target: Gal4-DBD–Vnd, construct A1 (amino acids 3–717) (Drosophila) (UniProt P22808); test: two-hybrid
[2] = molecular target: Gal4-DBD–Vnd, construct A2 (amino acids 3–613) (Drosophila) (UniProt P22808); test: two-hybrid

fold reduction of repression (two-hybrid reporter) [1]: 6 fold | fold alleviation of repression (two-hybrid reporter) [2]: 3 to 3.5 fold
Substance: VP16–Dichaete (pACT-Dichaete) (natural protein)
